± gives the uncertainty stated by the source.
Experiment: self-splicing fitness, log relative to wild type (ln ratio); higher = more splicing; Tetrahymena group I intron in knt gene, E. coli kanamycin selection, DiMSum; sequences stand for … in CUCUCU…GGAGGGAAAAGUUAUCAGGCAUGCACCUGGUAGCUAGUCUUUAAACCAAUAGAUUGCAUCGGUUUAAAAGGCAAGACCGUCAAAUUGCGGGAAAGGGGUCAACAGCCGUUCAGUACCAAGUCUCAGGGGAAACUUUGAGAUGGCCUUGCAAAGGGUAUGGUAAUAAGCUGACGGACAUGGUCCUAACCACGCAGCCAAGUCCUAAGUCAACAGAUCUUCUGUUGAUAUGGAUGCAGUUCACAGACUAAAUGUCGGUCGGGGAAGAUGUAUUCUUCUCAUAAGAUAUAGUCGGACCUCUCCUUAAUGGGAGCUAGCGGAUGAAGUGAUGCAACACUGGAGCCGCUGGGAACUAAUUUGUAUGCGAAAGUAUAUUGAUUAGUUUUGGAGUACUCGUGGUCG
Method in brief: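 The eight P1ex-region nucleotides of an intron in the knt kanamycin-resistance gene on pET-22b(+) were all randomised and the library put into E. coli BL21(DE3). Six replicate transformations were grown overnight at 37°C or 30°C on LB agar with or without 25 μg/mL kanamycin, together with 100 μg/mL carbenicillin, 50 μM IPTG and 0.2% rhamnose. Colonies were pooled and amplicon-sequenced on an Illumina HiSeq 2500. Fitness from DiMSum is the error-weighted combination of wild-type-normalised replicate fold changes, kanamycin over none.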

Sequence	self-splicing fitness (ln) (30 °C)	self-splicing fitness (ln) (37 °C)
CGACAGCAAUAUUACGUGGU	-3.79 ± 0.18	-3.34 ± 0.17
CGACAGCAAUAUUACGUUAA	-3.04 ± 0.22	-2.19 ± 0.18
CGACAGCAAUAUUACGUUGU	-3.46 ± 0.1	-3.25 ± 0.15
CGAGAGCAAUAUUACGAAGG	-3.4 ± 0.22	-2.69 ± 0.32
CGAGAGCAAUAUUACGACGC	-1.91 ± 0.42	–
CGAGAGCAAUAUUACGACGG	-0.704 ± 0.16	-0.616 ± 0.18
CGAGAGCAAUAUUACGACGU	-2.81 ± 0.22	-3.04 ± 0.43
CGAGAGCAAUAUUACGAUGA	-2.11 ± 0.28	-1.27 ± 0.25
CGAGAGCAAUAUUACGAUGG	-3.15 ± 0.2	-0.694 ± 0.16
CGAGAGCAAUAUUACGCACG	-3.55 ± 0.29	-1.76 ± 0.3
CGAGAGCAAUAUUACGCAUA	-2.12 ± 0.44	-1.44 ± 0.49
CGAGAGCAAUAUUACGCGGA	-2.34 ± 0.37	-1.37 ± 0.19
CGAGAGCAAUAUUACGCGGU	-3.23 ± 0.23	-2.4 ± 0.24
CGAGAGCAAUAUUACGCUAG	–	-2.77 ± 0.4
CGAGAGCAAUAUUACGCUGC	-2.93 ± 0.36	-2.48 ± 0.37
CGAGAGCAAUAUUACGGAAC	-1.56 ± 0.44	–
CGAGAGCAAUAUUACGGAGG	-2.7 ± 0.49	–
CGAGAGCAAUAUUACGGCGG	-1.63 ± 0.14	-0.665 ± 0.26
CGAGAGCAAUAUUACGGCGU	-2.46 ± 0.28	-1.2 ± 0.19
CGAGAGCAAUAUUACGGCUC	-1.09 ± 0.21	–
CGAGAGCAAUAUUACGGGUG	-2.95 ± 0.15	-2.01 ± 0.16
CGAGAGCAAUAUUACGUCGG	-2.51 ± 0.15	-0.79 ± 0.15
CGAGAGCAAUAUUACGUUUC	-2.76 ± 0.25	-2.59 ± 0.27
CGAUAGCAAUAUUACGAAAU	-3.36 ± 0.28	-2.5 ± 0.33
CGAUAGCAAUAUUACGAACA	-2.13 ± 0.47	-1.38 ± 0.27

Sequence	self-splicing fitness (ln) (30 °C)	self-splicing fitness (ln) (37 °C)
CGAUAGCAAUAUUACGAACU	-0.913 ± 0.097	-0.465 ± 0.13
CGAUAGCAAUAUUACGACCA	-0.39 ± 0.46	-0.619 ± 0.33
CGAUAGCAAUAUUACGAGAA	-2.67 ± 0.36	-2.73 ± 0.47
CGAUAGCAAUAUUACGAGCG	-0.984 ± 0.12	-0.453 ± 0.13
CGAUAGCAAUAUUACGAGGA	-3.08 ± 0.38	-2.27 ± 0.38
CGAUAGCAAUAUUACGAGUA	-2.16 ± 0.26	-1.88 ± 0.19
CGAUAGCAAUAUUACGAGUG	-0.68 ± 0.08	-0.335 ± 0.096
CGAUAGCAAUAUUACGAUCG	-2.55 ± 0.24	-2.39 ± 0.38
CGAUAGCAAUAUUACGCACC	-2.55 ± 0.15	-1.09 ± 0.16
CGAUAGCAAUAUUACGCAGC	-4.01 ± 0.36	-1.34 ± 0.24
CGAUAGCAAUAUUACGCAUU	-1.87 ± 0.2	-1.3 ± 0.21
CGAUAGCAAUAUUACGCCAA	-2.66 ± 0.25	-1.87 ± 0.15
CGAUAGCAAUAUUACGCGCC	-2.04 ± 0.33	0.215 ± 0.24
CGAUAGCAAUAUUACGCUCG	–	-2.03 ± 0.47
CGAUAGCAAUAUUACGCUGC	-3.15 ± 0.36	-2.21 ± 0.5
CGAUAGCAAUAUUACGGAGU	-2.09 ± 0.16	-3.36 ± 0.32
CGAUAGCAAUAUUACGGCUC	-2.44 ± 0.14	-1.15 ± 0.17
CGAUAGCAAUAUUACGGUUC	-3.63 ± 0.27	-1.96 ± 0.16
CGAUAGCAAUAUUACGUACA	-1.98 ± 0.13	-0.0364 ± 0.14
CGAUAGCAAUAUUACGUACG	-1.83 ± 0.097	-1.05 ± 0.1
CGAUAGCAAUAUUACGUCAG	-1.39 ± 0.13	-1.25 ± 0.14
CGAUAGCAAUAUUACGUCCC	-1.28 ± 0.23	-0.717 ± 0.28
CGAUAGCAAUAUUACGUUGC	-4.22 ± 0.34	-3.8 ± 0.22
CGCAAGCAAUAUUACGAAGA	-2.75 ± 0.21	-1.73 ± 0.17
CGCAAGCAAUAUUACGACCC	-2.18 ± 0.3	0.0863 ± 0.29

Source: the supplement of paper PMC7877785
